Experimental data published in publication PMC9518701.
Like-named read-outs stand apart in the source and are kept apart here.

Legend:
[1] = biological target: SARS-CoV-2 spike protein receptor binding domain (RBD) (SARS-CoV-2, wild type (Wuhan-Hu-1 reference)) (UniProt P0DTC2)
[2] = biological target: SARS-CoV-2 spike protein receptor binding domain (RBD) (SARS-CoV-2, wild type (Wuhan-Hu-1 reference)) (UniProt P0DTC2); test: SPR
[3] = biological target: SARS-CoV-2 spike protein receptor binding domain (RBD) (SARS-CoV-2) (UniProt P0DTC2)
[4] = biological target: SARS-CoV-2 spike protein receptor binding domain (RBD) (SARS-CoV-2) (UniProt P0DTC2); remark: listed apart in the source
[5] = biological target: SARS-CoV-2 spike protein receptor binding domain (RBD) (SARS-CoV-2) (UniProt P0DTC2); remark: listed apart in the source
FcγRIIIa (F158) = test: SPR
FcγRIIIa (V158) = test: SPR
FcγRIIa (H131) = test: SPR
FcγRIIa (R131) = test: SPR
FcγRIIb = test: SPR
FcγRI = test: SPR
[6] = biological target: human neonatal Fc receptor (FcRn) (human) (UniProt P55899); test: SPR; pH 6.0
human neonatal Fc receptor (FcRn) (human), sequence (P55899 24-297, chain 1 of 2): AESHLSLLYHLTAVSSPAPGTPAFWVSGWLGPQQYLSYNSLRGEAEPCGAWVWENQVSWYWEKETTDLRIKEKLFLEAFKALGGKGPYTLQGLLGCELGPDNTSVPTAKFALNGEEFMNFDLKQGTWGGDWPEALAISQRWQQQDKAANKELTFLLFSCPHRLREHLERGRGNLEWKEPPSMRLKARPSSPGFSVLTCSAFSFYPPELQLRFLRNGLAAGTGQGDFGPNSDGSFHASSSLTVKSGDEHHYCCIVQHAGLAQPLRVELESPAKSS
human neonatal Fc receptor (FcRn) (human), sequence (partner, as listed by the source, chain 2 of 2): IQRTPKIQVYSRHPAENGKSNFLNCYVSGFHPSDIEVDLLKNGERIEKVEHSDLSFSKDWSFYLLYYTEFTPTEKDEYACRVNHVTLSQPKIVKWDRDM

amubarvimab (BRII-196) (antibody)
other [1]: 0.026 µg/mL | Kd [2]: 5.88 nM

combination of amubarvimab and romlusevimab
other [3]: 0.16 µg/mL | other [4]: 0.047 µg/mL | IC50 [5]: 16.4 nM

romlusevimab (BRII-198)
Kd (FcγRIIIa (F158)): 4450 nM | Kd (FcγRIIIa (V158)): 731 nM | Kd (FcγRIIa (H131)): 13200 nM | Kd (FcγRIIa (R131)): 23700 nM | Kd (FcγRIIb): 35300 nM | Kd (FcγRI): 2.77 nM | Kd [6]: 0.36 nM
